T1: C160, subunit of S. cerevisiae RNA polymerase III (S. cerevisiae, UniProt P04051 1-1460)
T1 sequence: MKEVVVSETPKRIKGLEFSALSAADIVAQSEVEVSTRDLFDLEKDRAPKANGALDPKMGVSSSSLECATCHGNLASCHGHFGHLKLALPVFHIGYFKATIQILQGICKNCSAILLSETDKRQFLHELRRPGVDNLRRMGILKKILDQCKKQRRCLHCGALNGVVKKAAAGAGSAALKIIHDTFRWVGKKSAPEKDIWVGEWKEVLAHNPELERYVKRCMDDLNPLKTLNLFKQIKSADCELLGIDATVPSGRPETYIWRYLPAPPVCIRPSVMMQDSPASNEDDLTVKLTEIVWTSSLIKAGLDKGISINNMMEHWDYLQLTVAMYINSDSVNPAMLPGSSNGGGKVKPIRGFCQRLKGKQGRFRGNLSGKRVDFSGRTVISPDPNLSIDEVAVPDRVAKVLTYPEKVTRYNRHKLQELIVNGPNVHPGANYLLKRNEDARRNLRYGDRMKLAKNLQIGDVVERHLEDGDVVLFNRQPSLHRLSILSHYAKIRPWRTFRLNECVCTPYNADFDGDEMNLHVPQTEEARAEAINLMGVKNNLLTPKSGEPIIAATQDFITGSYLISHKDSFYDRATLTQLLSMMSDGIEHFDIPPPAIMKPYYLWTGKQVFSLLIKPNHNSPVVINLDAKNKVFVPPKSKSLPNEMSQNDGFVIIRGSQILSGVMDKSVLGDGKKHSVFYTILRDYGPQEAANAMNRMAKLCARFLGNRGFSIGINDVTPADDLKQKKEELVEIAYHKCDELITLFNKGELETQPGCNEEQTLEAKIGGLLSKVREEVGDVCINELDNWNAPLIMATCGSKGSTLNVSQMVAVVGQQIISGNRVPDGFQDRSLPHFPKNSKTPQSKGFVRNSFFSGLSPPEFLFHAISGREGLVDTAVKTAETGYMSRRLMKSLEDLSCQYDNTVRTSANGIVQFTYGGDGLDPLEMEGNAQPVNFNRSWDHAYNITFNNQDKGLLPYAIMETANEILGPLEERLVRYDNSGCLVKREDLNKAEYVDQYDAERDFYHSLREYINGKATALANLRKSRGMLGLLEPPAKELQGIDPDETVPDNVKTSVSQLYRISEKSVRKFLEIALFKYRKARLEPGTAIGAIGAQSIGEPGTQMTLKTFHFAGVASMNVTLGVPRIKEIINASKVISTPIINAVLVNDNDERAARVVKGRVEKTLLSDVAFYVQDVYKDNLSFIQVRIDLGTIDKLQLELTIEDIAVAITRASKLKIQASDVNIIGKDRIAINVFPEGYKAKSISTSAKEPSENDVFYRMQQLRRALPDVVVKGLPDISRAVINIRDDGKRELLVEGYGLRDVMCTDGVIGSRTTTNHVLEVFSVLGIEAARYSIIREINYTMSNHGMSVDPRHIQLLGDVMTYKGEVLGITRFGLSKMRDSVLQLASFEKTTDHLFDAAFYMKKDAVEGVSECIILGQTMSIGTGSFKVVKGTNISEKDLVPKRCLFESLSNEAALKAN

T2: C34, subunit of S. cerevisiae RNA polymerase III (S. cerevisiae, UniProt P32910 1-317)
T2 sequence: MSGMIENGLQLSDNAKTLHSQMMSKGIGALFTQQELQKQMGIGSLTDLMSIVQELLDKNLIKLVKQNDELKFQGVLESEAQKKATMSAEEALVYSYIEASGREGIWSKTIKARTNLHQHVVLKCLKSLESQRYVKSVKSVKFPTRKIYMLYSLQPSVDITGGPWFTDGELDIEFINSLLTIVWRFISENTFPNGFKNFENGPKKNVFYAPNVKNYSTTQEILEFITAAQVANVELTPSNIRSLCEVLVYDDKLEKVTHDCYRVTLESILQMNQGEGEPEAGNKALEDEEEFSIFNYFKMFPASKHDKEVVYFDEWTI

T3: Maf1-id L318S/W319S (S. cerevisiae, UniProt P41910 1-395, Δ64-194 | L318S | W319S)
T3 sequence (looked up): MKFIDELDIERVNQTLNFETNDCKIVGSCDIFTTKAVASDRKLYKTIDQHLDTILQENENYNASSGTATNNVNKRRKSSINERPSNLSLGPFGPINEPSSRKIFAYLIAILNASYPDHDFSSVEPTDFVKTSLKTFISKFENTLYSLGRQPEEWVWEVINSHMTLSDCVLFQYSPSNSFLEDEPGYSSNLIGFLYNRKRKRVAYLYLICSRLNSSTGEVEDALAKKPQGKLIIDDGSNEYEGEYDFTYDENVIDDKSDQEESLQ

T4: Maf1-id T33E/T34E (S. cerevisiae, UniProt P41910 1-395, Δ64-194 | T33E | T34E)
T4 sequence (looked up): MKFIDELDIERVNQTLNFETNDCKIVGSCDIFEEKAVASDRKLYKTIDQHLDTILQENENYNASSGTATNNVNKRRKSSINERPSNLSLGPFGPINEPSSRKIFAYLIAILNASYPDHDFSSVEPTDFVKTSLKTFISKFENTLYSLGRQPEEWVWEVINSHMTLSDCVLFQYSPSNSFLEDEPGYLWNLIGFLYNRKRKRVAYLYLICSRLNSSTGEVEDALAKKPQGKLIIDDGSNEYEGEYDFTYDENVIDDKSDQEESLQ

T5: Maf1-id D248A/D250A (S. cerevisiae, UniProt P41910 1-395, Δ64-194 | D248A | D250A)
T5 sequence (looked up): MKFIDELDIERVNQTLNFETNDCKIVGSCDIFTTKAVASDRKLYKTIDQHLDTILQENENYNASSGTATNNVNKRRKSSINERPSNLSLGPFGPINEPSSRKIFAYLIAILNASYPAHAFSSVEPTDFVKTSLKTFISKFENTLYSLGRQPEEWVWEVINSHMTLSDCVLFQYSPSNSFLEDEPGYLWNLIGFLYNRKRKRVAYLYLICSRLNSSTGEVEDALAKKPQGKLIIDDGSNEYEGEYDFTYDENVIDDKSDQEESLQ

B1: Maf1-id (S. cerevisiae Maf1 lacking the internal non-conserved region, Δ64-194) (natural protein, UniProt P41910 1-395, looked up)
chain: MKFIDELDIERVNQTLNFETNDCKIVGSCDIFTTKAVASDRKLYKTIDQHLDTILQENENYNASSGTATNNVNKRRKSSINERPSNLSLGPFGPINEPSSRKIFAYLIAILNASYPDHDFSSVEPTDFVKTSLKTFISKFENTLYSLGRQPEEWVWEVINSHMTLSDCVLFQYSPSNSFLEDEPGYLWNLIGFLYNRKRKRVAYLYLICSRLNSSTGEVEDALAKKPQGKLIIDDGSNEYEGEYDFTYDENVIDDKSDQEESLQ

Assays:
[1] = target: T1, C160, subunit of S. cerevisiae RNA …; experiment: cryo-EM structure
[2] = target: T2, C34, subunit of S. cerevisiae RNA …; experiment: cryo-EM structure
[3] = target: B1; experiment: pull-down
Maf1-id L318S/W319S = target: T3, Maf1-id L318S/W319S; experiment: pull-down
Maf1-id T33E/T34E = target: T4, Maf1-id T33E/T34E; experiment: pull-down
Maf1-id D248A/D250A = target: T5, Maf1-id D248A/D250A; experiment: pull-down

| binding result [1] | binding result [2] | binding result [3] | binding result (Maf1-id L318S/W319S) | binding result (Maf1-id T33E/T34E) | binding result (Maf1-id D248A/D250A) | Binder |
| --- | --- | --- | --- | --- | --- | --- |
| binds | binds |  |  |  |  | B1 |
|  |  | binds | binds | binds | binds | His-tagged C34 1-156 (the two N-terminal WH domains of C34) (domain or fragment, S. cerevisiae, UniProt P32910 1-156, looked up) MSGMIENGLQLSDNAKTLHSQMMSKGIGALFTQQELQKQMGIGSLTDLMSIVQELLDKNLIKLVKQNDELKFQGVLESEAQKKATMSAEEALVYSYIEASGREGIWSKTIKARTNLHQHVVLKCLKSLESQRYVKSVKSVKFPTRKIYMLYSLQPS |

Reference: publication PMC7104376 (Nature structural & molecular biology, 2020)
